Biological target: T1, fibronectin type III domains 1-5 of human tenascin-C (human, UniProt P24821 625-1075)
T1 construct: range 625-1075; Expressed in HEK293 cells, purified on Streptactin XT; coated on the ELISA plate; also called TN1-5
T1 sequence (looked up): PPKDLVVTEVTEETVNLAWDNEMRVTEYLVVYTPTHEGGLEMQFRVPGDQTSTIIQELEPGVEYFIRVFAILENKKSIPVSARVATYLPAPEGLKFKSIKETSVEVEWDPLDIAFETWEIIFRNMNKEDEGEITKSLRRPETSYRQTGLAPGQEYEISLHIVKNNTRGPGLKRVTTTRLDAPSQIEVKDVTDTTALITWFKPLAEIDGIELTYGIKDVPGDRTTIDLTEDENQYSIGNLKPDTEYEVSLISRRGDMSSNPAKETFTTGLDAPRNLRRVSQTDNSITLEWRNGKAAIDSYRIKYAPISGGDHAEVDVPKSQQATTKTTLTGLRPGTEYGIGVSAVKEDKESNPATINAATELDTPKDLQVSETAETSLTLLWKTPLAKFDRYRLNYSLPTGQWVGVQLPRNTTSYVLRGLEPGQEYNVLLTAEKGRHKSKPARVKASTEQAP
Assay: ELISA, TN1-5 coated, biotinylated FN4-6 titrated 1 nM to 1 µM

Kd: 44 nM
B1: fibronectin type III domains 4-6 of human fibronectin (double Strep-tagged) (other, UniProt P02751 909-1175, looked up, not shown: small tags and cut ends)
chain: SPRDLQFVEVTDVKVTIMWTPPESAVTGYRVDVIPVNLPGEHGQRLPISRNTFAEVTGLSPGVTYYFKVFAVSHGRESKPLTAQQTTKLDAPTNLQFVNETDSTVLVRWTPPRAQITGYRLTVGLTRRGQPRQYNVGPSVSKYPLRNLQPASEYTVSLVAIKGNQESPKATGVFTTLQPGSSIPPYNTEVTETTIVITWTPAPRIGFKLGVRPSQGGEAPREVTSDSGSIVVSGLTPGVEYVYTIQVLRDGQERDAPIVNKVVTPLS
notes: range 909-1175; Biotinylated with Biotin-Ahx-NHS for the ELISA on TN1-5; also called FN4-6

Reference: patent EP3912994A1 (Université de Strasbourg, dated 2021)
